Experiment [1] addresses T1, human nerve growth factor (human, UniProt P01138 122-241).
T1 construct: Immobilised on CM5 chips for BIAcore, soluble in neuron survival assays; also called human NGF; hNGF
Nature of the experiment: BIAcore SPR screen, Fab over immobilised human NGF; KD calculated from koff with kon 4e4 M-1s-1. Here is the method:
(§1) A screening BIAcore assay was optimized to determine the affinity of Fab clones from libraries. Supernatants of small culture lysates were injected at […] for 2 min. Dissociation times of 10 to 15 minutes were used for determination of a single exponential dissociation rate (koff) using BIAevaluation software. […] Clones showing improved (slower) koff values were expressed at large scale and full kinetic parameters, kₒₙ and koff, were determined on purified protein.
(§2) 20-80 clones from each small library were screened using BIAcore analysis as described herein. Samples were simultaneously analyzed by BIAcore for binding affinity to NGF in one channel of the BIAcore chip and for presence of Fab by binding to a penta-histag antibody in another channel of the sensor chip, to detect the his tag at the C terminus of the heavy chain. Clones that expressed protein were classified as having the same affinity, worse affinity, better affinity or no binding, using koff to classify: The results of this analysis are shown in Table 5.

The target of experiment [2] is T1, human nerve growth factor. Nature of the experiment: BIAcore SPR screen, Fab over immobilised human NGF. As to the method:
as §1, §2

Experiment [3] deals with T1, human nerve growth factor. The experiment is described as follows: BIAcore SPR screen, Fab over immobilised human NGF. As to the method: as §1
(§3) For affinity screening experiments, each library was further paired with the corresponding CDR-grafted light or heavy chain (for example, the H1/H2 library was paired with CDR-grafted light chain), the antibody was expressed, and affinity to human NGF of the individual clones was screened using the BIACORE surface plasmon resonance (SPR) system (BIAcore, Inc. Piscataway, N.J.) according to the manufacturer's instructions and as described above. koff, kₒₙ and KD were determined. Antibody clones were ranked based on koff rates, since generally most variation in affinity is seen in koff rates, and further because koff rates are independent of antibody concentration.
The source holds these as a separate data set. For orientation: In SPR one partner is held on a chip, and binding of the other changes the refractive index at the surface.

The target of experiment [4] is T1, human nerve growth factor. The experiment is described as follows: BIAcore SPR screen, Fab over immobilised human NGF; KD calculated from koff with kon 4e4 M-1s-1. As to the method:
as §1, §3
This is another data set of the same source.

Read-outs that look alike come from different tables or passages of the source.

One may read the Kd as the free concentration of one partner at which half of the binding sites on the other are occupied at equilibrium, for simple one-to-one binding. As usually defined, the koff is the rate constant with which the complex falls apart. A higher koff goes with a short-lived complex.

T1 sequence (P01138 122-241 limits assumed): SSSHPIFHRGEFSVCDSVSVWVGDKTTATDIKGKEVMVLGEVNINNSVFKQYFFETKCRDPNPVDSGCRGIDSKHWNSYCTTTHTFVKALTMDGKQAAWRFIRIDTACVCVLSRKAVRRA

B1: 8L2-6D5 Fab with CDR L3 mutation S91E (Fab, V domains shown)
VH: QVQLQESGPGLVKPSETLSLTCTVSGFSLIGYDINWIRQPPGKGLEWIGMIWGDGTTDYNSALKSRVTISKDTSKNQFSLKLSSVTAADTAVYYCARGGYYYGTSYYFDYWGQGTLVTVS
VL: DIQMTQSPSSLSASVGDRVTITCRASQDISNHLNWYQQKPGKAPKLLIYYISRFHSGVPSRFSGSGSGTDFTFTISSLQPEDIATYYCQQEKTLPYTFGQGTKLEIKR
notes: E91 is the E3 residue, so it is kept; See note of m8
As to B1, the Kd in experiment [1] was 6 nM. Besides, the off-rate (koff) in experiment [2] amounted to 0.00025 s⁻¹.

B2: heavy chain library clone H225 (Fab, V domains shown)
VH: QVQLQESGPGLVKPSETLSLTCTVSGFSLIGYDVTWIRQPPGKGLEWIGGIWGDGTTDYNSSVKSRVTISKDTSKNQFSLKLSSVTAADTAVYYCARGGYYYGTSYYFDYWGQGTLVTVS
VL: DIQMTQSPSSLSASVGDRVTITCRASQDISNHLNWYQQKPGKAPKLLIYYISRFHSGVPSRFSGSGSGTDFTFTISSLQPEDIATYYCQQSKTLPYTFGQGTKLEIKR
notes: See note of m8
As for B2, in experiment [3], the koff stood at 0.00038 s⁻¹. In addition, the Kd in experiment [4] was 9.5 nM.

B3: heavy chain library clone H109 (Fab, V domains shown)
VH: QVQLQESGPGLVKPSETLSLTCTVSGFSLIGYDSNWIRQPPGKGLEWIGIIWGDGTTDYNSALKSRVTISKDTSKNQFSLKLSSVTAADTAVYYCARGGYYYGTSYYFDYWGQGTLVTVS
VL: DIQMTQSPSSLSASVGDRVTITCRASQDISNHLNWYQQKPGKAPKLLIYYISRFHSGVPSRFSGSGSGTDFTFTISSLQPEDIATYYCQQSKTLPYTFGQGTKLEIKR
notes: paired with the CDR-grafted light chain; See note of m8
B3 had a koff in experiment [3] of 0.00016 s⁻¹. Also, the dissociation constant (Kd) in experiment [4] was 4 nM.

B4: heavy chain library clone H28 (Fab, V domains shown)
VH: QVQLQESGPGLVKPSETLSLTCTVSGFSLIGYDSTWIRQPPGKGLEWIGSIWGDGTTDYNSALKSRVTISKDTSKNQFSLKLSSVTAADTAVYYCARGGYYYGTSYYFDYWGQGTLVTVS
VL: DIQMTQSPSSLSASVGDRVTITCRASQDISNHLNWYQQKPGKAPKLLIYYISRFHSGVPSRFSGSGSGTDFTFTISSLQPEDIATYYCQQSKTLPYTFGQGTKLEIKR
notes: See note of m8
For B4, the koff in experiment [3] was 0.00075 s⁻¹. The Kd in experiment [4] is 18.7 nM.

B5: heavy chain library clone H9 (Fab, V domains shown)
VH: QVQLQESGPGLVKPSETLSLTCTVSGFSLIGYDVSWIRQPPGKGLEWIGIIWGDGTTDYNSSVKSRVTISKDTSKNQFSLKLSSVTAADTAVYYCARGGYYYGTSYYFDYWGQGTLVTVS
VL: DIQMTQSPSSLSASVGDRVTITCRASQDISNHLNWYQQKPGKAPKLLIYYISRFHSGVPSRFSGSGSGTDFTFTISSLQPEDIATYYCQQSKTLPYTFGQGTKLEIKR
notes: See note of m8
With B5, in experiment [3], the koff came to 0.00041 s⁻¹. In addition, the Kd in experiment [4] is 10.2 nM.

B6: heavy chain library clone H227 (Fab, V domains shown)
VH: QVQLQESGPGLVKPSETLSLTCTVSGFSLIGYDISWIRQPPGKGLEWIGQIWGDGTTDYNSSVKSRVTISKDTSKNQFSLKLSSVTAADTAVYYCARGGYYYGTSYYFDYWGQGTLVTVS
VL: DIQMTQSPSSLSASVGDRVTITCRASQDISNHLNWYQQKPGKAPKLLIYYISRFHSGVPSRFSGSGSGTDFTFTISSLQPEDIATYYCQQSKTLPYTFGQGTKLEIKR
notes: See note of m8
B6: the koff in experiment [3] stood at 0.00054 s⁻¹. In experiment [4], the Kd is 13.5 nM.

B7: heavy chain library clone H19 (Fab, V domains shown)
VH: QVQLQESGPGLVKPSETLSLTCTVSGFSLIGYDLNWIRQPPGKGLEWIGIIWGDGTTDYNSAVKSRVTISKDTSKNQFSLKLSSVTAADTAVYYCARGGYYYGTSYYFDYWGQGTLVTVS
VL: DIQMTQSPSSLSASVGDRVTITCRASQDISNHLNWYQQKPGKAPKLLIYYISRFHSGVPSRFSGSGSGTDFTFTISSLQPEDIATYYCQQSKTLPYTFGQGTKLEIKR
notes: See note of m8
The molecule B7 returned a koff in experiment [3] of 0.00024 s⁻¹. Also, in experiment [4], the Kd is 6 nM.

B8: heavy chain library clone H222 (Fab, V domains shown)
VH: QVQLQESGPGLVKPSETLSLTCTVSGFSLIGYDVTWIRQPPGKGLEWIGGIWGDGTTDYNSAVKSRVTISKDTSKNQFSLKLSSVTAADTAVYYCARGGYYYGTSYYFDYWGQGTLVTVS
VL: DIQMTQSPSSLSASVGDRVTITCRASQDISNHLNWYQQKPGKAPKLLIYYISRFHSGVPSRFSGSGSGTDFTFTISSLQPEDIATYYCQQSKTLPYTFGQGTKLEIKR
notes: See note of m8
Turning to B8, the off-rate (koff) in experiment [3] is 0.00038 s⁻¹. The equilibrium dissociation constant (Kd) in experiment [4] was 9.5 nM.

B9: 8L2-6D5 Fab with CDR L3 mutation Y96R (Fab, V domains shown)
VH: QVQLQESGPGLVKPSETLSLTCTVSGFSLIGYDINWIRQPPGKGLEWIGMIWGDGTTDYNSALKSRVTISKDTSKNQFSLKLSSVTAADTAVYYCARGGYYYGTSYYFDYWGQGTLVTVS
VL: DIQMTQSPSSLSASVGDRVTITCRASQDISNHLNWYQQKPGKAPKLLIYYISRFHSGVPSRFSGSGSGTDFTFTISSLQPEDIATYYCQQSKTLPRTFGQGTKLEIKR
notes: See note of m8
On to B9, for which the Kd in experiment [1] was 42 nM. Besides, the off-rate (koff) in experiment [2] came to 0.0017 s⁻¹.

B10: light chain library clone L81 (Fab, V domains shown)
VH: QVQLQESGPGLVKPSETLSLTCTVSGFSLIGYDINWIRQPPGKGLEWIGMIWGDGTTDYNSALKSRVTISKDTSKNQFSLKLSSVTAADTAVYYCARGGYYYGTSYYFDYWGQGTLVTVS
VL: DIQMTQSPSSLSASVGDRVTITCRAFQAISNQLNWYQQKPGKAPKLLIYYISRFHTGVPSRFSGSGSGTDFTFTISSLQPEDIATYYCQQSKTLPYTFGQGTKLEIKR
notes: See note of m8
On to B10, for which the koff in experiment [3] turned out to be 0.00074 s⁻¹. Besides, the equilibrium dissociation constant (Kd) in experiment [4] was 18 nM.

B11: light chain library clone L6 (Fab, V domains shown)
VH: QVQLQESGPGLVKPSETLSLTCTVSGFSLIGYDINWIRQPPGKGLEWIGMIWGDGTTDYNSALKSRVTISKDTSKNQFSLKLSSVTAADTAVYYCARGGYYYGTSYYFDYWGQGTLVTVS
VL: DIQMTQSPSSLSASVGDRVTITCRAFQSISNQLNWYQQKPGKAPKLLIYYASRFHSGVPSRFSGSGSGTDFTFTISSLQPEDIATYYCQQSKTLPYTFGQGTKLEIKR
notes: See note of m8
For the molecule B11, the koff in experiment [3] worked out at 0.00082 s⁻¹. The dissociation constant (Kd) in experiment [4] was 20 nM.

B12: light chain library clone L97 (Fab, V domains shown)
VH: QVQLQESGPGLVKPSETLSLTCTVSGFSLIGYDINWIRQPPGKGLEWIGMIWGDGTTDYNSALKSRVTISKDTSKNQFSLKLSSVTAADTAVYYCARGGYYYGTSYYFDYWGQGTLVTVS
VL: DIQMTQSPSSLSASVGDRVTITCRASQSISNQLNWYQQKPGKAPKLLIYYVSRFHSGVPSRFSGSGSGTDFTFTISSLQPEDIATYYCQQSKTLPYTFGQGTKLEIKR
notes: See note of m8
For the molecule B12, the koff in experiment [3] is 0.00056 s⁻¹. Moreover, the Kd in experiment [4] was 14 nM.

B13: heavy chain library clone H18 (Fab, V domains shown)
VH: QVQLQESGPGLVKPSETLSLTCTVSGFSLIGYDATWIRQPPGKGLEWIGGIWGDGTTDYNSAVKSRVTISKDTSKNQFSLKLSSVTAADTAVYYCARGGYYYGTSYYFDYWGQGTLVTVS
VL: DIQMTQSPSSLSASVGDRVTITCRASQDISNHLNWYQQKPGKAPKLLIYYISRFHSGVPSRFSGSGSGTDFTFTISSLQPEDIATYYCQQSKTLPYTFGQGTKLEIKR
notes: See note of m8
Consider B13, for which the off-rate constant (koff) in experiment [3] was 0.00042 s⁻¹. In addition, the dissociation constant (Kd) in experiment [4] is 10.5 nM.

B14: light chain library clone L129 (Fab, V domains shown)
VH: QVQLQESGPGLVKPSETLSLTCTVSGFSLIGYDINWIRQPPGKGLEWIGMIWGDGTTDYNSALKSRVTISKDTSKNQFSLKLSSVTAADTAVYYCARGGYYYGTSYYFDYWGQGTLVTVS
VL: DIQMTQSPSSLSASVGDRVTITCRASQSISNNLNWYQQKPGKAPKLLIYYTSRFHSGVPSRFSGSGSGTDFTFTISSLQPEDIATYYCQQSKTLPYTFGQGTKLEIKR
notes: paired with the CDR-grafted heavy chain; See note of m8
In the case of B14, the koff in experiment [3] worked out at 0.00045 s⁻¹. Also, in experiment [4], the Kd was 11 nM.

The values are drawn from patent US20170088610A1 (RINAT NEUROSCIENCE, published 2017).
